“And” between values parts separate entries of the source, which are not always exact repeats. Identical values can stand only once. “Also recorded” adds a separate entry of the source.
B1: murine 16B5: murine anti-clusterin 16B5 antibody used in mouse studies; VL SEQ ID NO:7, VH SEQ ID NO:8 (antibody, V domains shown)
VH: EVQLQQSGAELVKPGASVRLSCTTSGFNIKDIYMHWVKQRPEQGLEWIGRIDPAYGNTKYDPKFQGKATITADTSSNTAYLQLSSLTSEDTAVYYCARRYDTAMDYWGQGTSVTVSS
VL: DIVMSQSPSSLAVSAGEKVTMSCKSSQSLLNSRTRKNYLAWYQQKPGQSPKLLIYWASTRESGVPDRFTGSGSGTDFTLTISSVQAEDLAVYYCKQSYNLWTFGGGTKLEFK
modifications: Murine 16B5 VH; Murine 16B5 VL

Experiments:
[1] = test system: 4T1 mouse mammary carcinoma cells; assay: 4T1 model: count of metastatic lung nodules; type: in vivo, Balb/c mice; conditions: Balb/c, treatment for 5 weeks (docetaxel 10 mg/kg IP 1X/week; AB-16B5 10 mg/kg IP 2X/week), vs saline control
Method: (§1) Five groups, each consisting of 10 female Balb/c mice were assigned to this study (see Table 5 below). All animals received subcutaneous implantation of 4T1 mouse mammary carcinoma cells in the 4th inguinal mammary gland. Treatment was initiated on the day of implantation (defined as Day 1). Animals from Group 1 (Gr. 1) received IP treatment of saline vehicle control twice a week for the duration of the study. Animals from Group 2 (Gr. 2) received 10 mg/kg of docetaxel weekly for five weeks by IP administration. Animals from Group 3 (Gr. 3) received 10 mg/kg of docetaxel weekly for two weeks and 10 mg/kg of AB-16B5, twice weekly for five weeks. Animals from Group 4 (Gr. 4) received 10 mg/kg of docetaxel weekly and 5 mg/kg of 16B5 twice weekly each over the course of a five weeks treatment. Animals from Group 5 (Gr. 5) received AB-16B5 twice weekly for five weeks. On Day 36, the primary tumors were excised and on Day 37, the animals were sacrificed and the number of grossly visible metastatic nodules on the surface of the lungs was counted.

4T1 primary tumors = assay: 4T1 model: CD45+ immune cells in primary tumors; type: in vivo, Balb/c mice; conditions: Balb/c, 5-week regimens (Groups 2, 4, 5), primary tumors excised at Day 16
Method: as §1
The primary tumors excised at Day 16 post implantation, were processed with collagenase and hyaluronidase and immune cells were purified by positive selection using magnetic latex beads coated with an anti-CD45 antibody. […]

4T1 lung metastases = assay: 4T1 model: immunohistochemistry of lung metastases; type: in vivo; conditions: Balb/c mice, orthotopic 4T1; 10 mg/kg IP thrice a week; Day 36
Excerpt: Balb/c mice were orthotopically implanted with 5×10^5 4T1 cells in the 4th mammary fat pad. Animals received IP saline treatment thrice weekly. The primary tumor was surgically removed at Day 16 post-implantation. The animals were sacrificed at Day 36 and the lungs were excised. Tissues were fixed in paraformaldehyde and processed for paraffin embedding. Tissue sections were probed with anti-mouse CD3, anti-mouse CD8 and anti-mouse B220 antibodies. […] Results presented in FIG. 1 indicate that the 4T1 lung metastases create an immune cold microenvironment which prevents the infiltration of B and T lymphocytes in tumors. Delineated regions indicate that CD3 and CD8 T lymphocytes are restricted in the tumor margin as a consequence of EMT.
Animals bearing 4T1 tumors were treated with the AB-16B5 antibody (murine 16B5) thrice a week IP at 10 mg/kg. The primary tumor was surgically removed at Day 16 post-implantation. The animals were sacrificed at Day 36 and the lungs were excised. Tissues were fixed in paraformaldehyde and processed for paraffin embedding. Tissue sections were probed with anti-mouse CD3, anti-mouse CD8 and anti-mouse B220 antibodies.

4T1 tumor cells = assay: INFγ secretion of tumor infiltrating lymphocyte cultures co-cultured with 4T1 cells (ELISA); type: cell-based, Balb/c mice; conditions: 100,000 lymphocytes from lung metastatic nodules with 100,000 4T1 cells overnight, individual animals, AB-16B5 10 mg/kg IP twice weekly ± docetaxel 10 mg/kg IP weekly
Method: Balb/c mice were orthotopically implanted with 5×10^5 4T1 cells in the 4th mammary fat pad. Animals received intraperitoneal (IP) AB-16B5 (murine 16B5) 10 mg/kg twice weekly in combination with IP docetaxel 10 mg/kg weekly (Group 15: animals 1501, 1502 and 1503) or IP AB-16B5 10 mg/kg twice weekly (Group 25: […]). The primary tumor was surgically removed at Day 16 post-implantation. The animals were sacrificed at Day 36 and the lungs were excised and each visible lung metastasis was carefully dissected. Each visible metastatic nodule, if any, was excised and processed for a rapid expansion of tumor infiltrating lymphocyte protocol. The metastatic nodules were sectioned into small pieces of 2-3 mm edge that were individually grown in 24 well plates containing culture medium supplemented with FBS, IL2, IL7, ITS (1,000 U/mL IL2, 2.0 ng/mL IL7 and 1× insulin-transferrin-selenium cocktail (Gibco 41400-045)).
After three weeks in culture, 100,000 cells were taken from each of the lymphocyte cultures (six cultures corresponding to three animals from Group 15 and three animals from Group 25) and placed in culture with 100,000 4T1 tumor cells. After overnight co-culture, the supernatant was recovered for INFγ quantification by ELISA.

Row | Molecule | metastatic lung nodules / therapeutic effect on lung metastases [1] | CD45+ immune cells in primary tumors (4T1 primary tumors) | infiltration of lung metastases with T cells (4T1 lung metastases) | lung metastases (number and size) (4T1 lung metastases) | plasmocytes penetration in tumors (4T1 lung metastases) | INFγ (4T1 tumor cells)
1 | CC(=O)O[C@@]12CO[C@@H]1C[C@H](O)[C@@]1(C)C(=O)[C@H](O)C3=C(C)[C@@H](OC(=O)[C@H](O)[C@@H](NC(=O)OC(C)(C)C)c4ccccc4)C[C@@](O)([C@@H](OC(=O)c4ccccc4)[C@H]21)C3(C)C [docetaxel] | as many metastatic lung nodules as the saline control group; also recorded: relatively ineffective | very few CD45+ |  |  |  | 
2 | B1 | less metastatic lung nodules | more immune cells | densely infiltrated with CD3 and CD8 T cells | fewer and much smaller lung metastases | evidence of plasmocytes penetration | 8538.8 pg/mL and 3770.0 pg/mL and 4538.8 pg/mL

Source: patent publication US20240317884A1, “METHOD FOR ALLOWING IMMUNE CELLS INFILTRATION IN TUMORS” (Alethia Biotherapeutics Inc., priority 2021, published 2024)
